According to patent publication US7754689B2, “Finger-1 peptide analogs of the TGF-β superfamily” (Wyeth LLC, priority 2006, dated 2010):
Each block holds one binder with its values, some of them ahead of it. No end group written: not given here.

Assays:
BMP-12 [1] = molecular target: T1, BMP-12 (UniProt Q7Z4P5 322-450, limits assumed); test: peptide resin, filter plate; load 1: 50 mM Acetic Acid, 0.1 M NaCl, pH 2.9
T1 construct: also called BMP12/GDF7
T1 sequence (looked up): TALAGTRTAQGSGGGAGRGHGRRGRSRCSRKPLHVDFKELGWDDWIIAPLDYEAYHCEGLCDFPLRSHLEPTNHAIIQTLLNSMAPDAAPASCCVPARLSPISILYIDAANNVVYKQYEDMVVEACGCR
Method: (§1) The coupled resins, plus an unconjugated resin for use as a control, were suspended in 16% ethanol, 150 mM NaCl, and 20 mM Tris buffer at pH 7.5 at a 25% v/v ratio (e.g., 25% ethanol, 75% Tris buffer). A Tecan liquid-handling robot was employed to aliquot 200 μL of each slurry into one of eight rows of a 96 well polystyrene filter plate (0.45 μm hydrophilic filters, Whatman catalog number 770-1806). Spinning at 1200 g for 3 min removed the liquid phase, leaving 50 μL of wet resin on the filters. The resins were then equilibrated with the loading buffers listed in Table 6 (K is a coefficient characterizing the strength of protein binding to a particular resin in a particular buffer). […] The resins were loaded by transferring 150 μL from the load plate to the filter plate and then incubating 20 min on a shaking platform to facilitate binding. The filter plate was spun down and the filtrate collected in a 96 well UV plate. The protein concentration in the filtrate, or flow-through, was calculated as $(A280-A320)/1.3$. The filter plate was then washed with 150 μL of 100 mM acetic acid, followed by 150 μL of 4M guanidine-HCl and 50 mM sodium acetate at pH 4.0. The protein concentration was measured in the new filtrate as described above. […] Flow-through and acetic acid elution samples from column 4 of the plate (loaded with MES pH 6) were analyzed on a gel (FIG. 14).

BMP-12 [2] = molecular target: T1, BMP-12; test: peptide resin, filter plate; load 6: 1M CHES pH 9.7
Method: as §1

BMP-12 [3] = molecular target: T1, BMP-12; test: peptide resin, filter plate; load 11: 50 mM Tris, 0.25 M NaCl, 30% MPD, pH 8.0
Method: as §1

BMP-12 [4] = molecular target: T1, BMP-12; test: peptide resin, filter plate; load 3: 25 mM Na Acetate pH 5.0
Method: as §1

BMP-12 [5] = molecular target: T1, BMP-12; test: peptide resin, filter plate; load 5: 25 mM HEPES pH 7.0
Method: as §1

BMP-12 [6] = molecular target: T1, BMP-12; test: peptide resin, filter plate; load 12: 50 mM Tris, 0.1 M NaCl, 20% MPD, pH 8.0
Method: as §1

BMP-12 [7] = molecular target: T1, BMP-12; test: peptide resin, filter plate; load 10: 50 mM Tris, 0.1 M NaCl, 40% MPD, pH 8.0
Method: as §1

BMP-12 [8] = molecular target: T1, BMP-12; test: peptide resin, filter plate; load 4: 25 mM MES pH 6.0
Method: as §1

BMP-12 [9] = molecular target: T1, BMP-12; test: peptide resin, filter plate; load 2: 50 mM Acetic Acid, 0.1 M NaCl, pH 4.0
Method: as §1

100 mM HAc elution K (BMP-12 [1]): 1 | 100 mM HAc elution conc (BMP-12 [1]): 0.096 mg/mL | 4M Gnd, 50 mM NaAc pH 4 Strip Conc (BMP-12 [1]): 0.044 mg/ml | Flow-through K (BMP-12 [1]): 1 | Flow-through conc (BMP-12 [1]): 0.337 mg/mL | Flow-through K (BMP-12 [2]): -1 | Flow-through conc (BMP-12 [2]): 0.577 mg/mL | Flow-through K (BMP-12 [3]): 1 | Flow-through conc (BMP-12 [3]): 0.342 mg/mL | 100 mM HAc elution K (BMP-12 [4]): 1 | 100 mM HAc elution conc (BMP-12 [4]): 0.226 mg/mL | 4M Gnd, 50 mM NaAc pH 4 Strip Conc (BMP-12 [4]): 0.072 mg/ml | Flow-through K (BMP-12 [4]): 6 | Flow-through conc (BMP-12 [4]): 0.163 mg/mL | 100 mM HAc elution K (BMP-12 [5]): 0 | 100 mM HAc elution conc (BMP-12 [5]): 0.187 mg/mL | 4M Gnd, 50 mM NaAc pH 4 Strip Conc (BMP-12 [5]): 0.046 mg/ml | Flow-through K (BMP-12 [5]): 2 | Flow-through conc (BMP-12 [5]): 0.29 mg/mL | Flow-through K (BMP-12 [6]): 1 | Flow-through conc (BMP-12 [6]): 0.364 mg/mL | Flow-through K (BMP-12 [7]): 0 | Flow-through conc (BMP-12 [7]): 0.423 mg/mL | 100 mM HAc elution K (BMP-12 [8]): 1 | 100 mM HAc elution conc (BMP-12 [8]): 0.311 mg/mL | 4M Gnd, 50 mM NaAc pH 4 Strip Conc (BMP-12 [8]): 0.06 mg/ml | Flow-through K (BMP-12 [8]): 36 | Flow-through conc (BMP-12 [8]): 0.037 mg/mL | 100 mM HAc elution K (BMP-12 [9]): 2 | 100 mM HAc elution conc (BMP-12 [9]): 0.194 mg/mL | 4M Gnd, 50 mM NaAc pH 4 Strip Conc (BMP-12 [9]): 0.087 mg/ml | Flow-through K (BMP-12 [9]): 6 | Flow-through conc (BMP-12 [9]): 0.164 mg/mL
Binder: Ac-SDVGWNDWIVAPPGYHAFYCHGEK [BMP2 N-trun peptide 750]

100 mM HAc elution K (BMP-12 [1]): 3 | 100 mM HAc elution conc (BMP-12 [1]): 0.154 mg/mL | 4M Gnd, 50 mM NaAc pH 4 Strip Conc (BMP-12 [1]): 0.135 mg/ml | Flow-through K (BMP-12 [1]): 7 | Flow-through conc (BMP-12 [1]): 0.15 mg/mL | Flow-through K (BMP-12 [2]): -1 | Flow-through conc (BMP-12 [2]): 0.71 mg/mL | Flow-through K (BMP-12 [3]): 0 | Flow-through conc (BMP-12 [3]): 0.515 mg/mL | 100 mM HAc elution K (BMP-12 [4]): 1 | 100 mM HAc elution conc (BMP-12 [4]): 0.296 mg/mL | 4M Gnd, 50 mM NaAc pH 4 Strip Conc (BMP-12 [4]): 0.1 mg/ml | Flow-through K (BMP-12 [4]): 18 | Flow-through conc (BMP-12 [4]): 0.07 mg/mL | 100 mM HAc elution K (BMP-12 [5]): 1 | 100 mM HAc elution conc (BMP-12 [5]): 0.249 mg/mL | 4M Gnd, 50 mM NaAc pH 4 Strip Conc (BMP-12 [5]): 0.068 mg/ml | Flow-through K (BMP-12 [5]): 6 | Flow-through conc (BMP-12 [5]): 0.162 mg/mL | Flow-through K (BMP-12 [6]): 0 | Flow-through conc (BMP-12 [6]): 0.486 mg/mL | Flow-through K (BMP-12 [7]): 0 | Flow-through conc (BMP-12 [7]): 0.505 mg/mL | 100 mM HAc elution K (BMP-12 [8]): 1 | 100 mM HAc elution conc (BMP-12 [8]): 0.32 mg/mL | 4M Gnd, 50 mM NaAc pH 4 Strip Conc (BMP-12 [8]): 0.07 mg/ml | Flow-through K (BMP-12 [8]): 47 | Flow-through conc (BMP-12 [8]): 0.029 mg/mL | 100 mM HAc elution K (BMP-12 [9]): 3 | 100 mM HAc elution conc (BMP-12 [9]): 0.208 mg/mL | 4M Gnd, 50 mM NaAc pH 4 Strip Conc (BMP-12 [9]): 0.162 mg/ml | Flow-through K (BMP-12 [9]): 25 | Flow-through conc (BMP-12 [9]): 0.052 mg/mL
B1: BMP2 C-trunc_2 peptide 746 (peptide)
peptide: Ac-LYVSDVGWNDWIVK
modifications: not fully specified (residue 3); printed as Ac-LYV**SDVGWNDWIVK; also: ** after V3 not explained

100 mM HAc elution K (BMP-12 [1]): 1 | 100 mM HAc elution conc (BMP-12 [1]): 0.102 mg/mL | 4M Gnd, 50 mM NaAc pH 4 Strip Conc (BMP-12 [1]): 0.046 mg/ml | Flow-through K (BMP-12 [1]): 1 | Flow-through conc (BMP-12 [1]): 0.349 mg/mL | Flow-through K (BMP-12 [2]): -1 | Flow-through conc (BMP-12 [2]): 0.647 mg/mL | Flow-through K (BMP-12 [3]): 0 | Flow-through conc (BMP-12 [3]): 0.425 mg/mL | 100 mM HAc elution K (BMP-12 [4]): 1 | 100 mM HAc elution conc (BMP-12 [4]): 0.285 mg/mL | 4M Gnd, 50 mM NaAc pH 4 Strip Conc (BMP-12 [4]): 0.07 mg/ml | Flow-through K (BMP-12 [4]): 9 | Flow-through conc (BMP-12 [4]): 0.124 mg/mL | 100 mM HAc elution K (BMP-12 [5]): 0 | 100 mM HAc elution conc (BMP-12 [5]): 0.254 mg/mL | 4M Gnd, 50 mM NaAc pH 4 Strip Conc (BMP-12 [5]): 0.044 mg/ml | Flow-through K (BMP-12 [5]): 4 | Flow-through conc (BMP-12 [5]): 0.216 mg/mL | Flow-through K (BMP-12 [6]): 1 | Flow-through conc (BMP-12 [6]): 0.411 mg/mL | Flow-through K (BMP-12 [7]): 0 | Flow-through conc (BMP-12 [7]): 0.435 mg/mL | 100 mM HAc elution K (BMP-12 [8]): 1 | 100 mM HAc elution conc (BMP-12 [8]): 0.355 mg/mL | 4M Gnd, 50 mM NaAc pH 4 Strip Conc (BMP-12 [8]): 0.053 mg/ml | Flow-through K (BMP-12 [8]): 38 | Flow-through conc (BMP-12 [8]): 0.035 mg/mL | 100 mM HAc elution K (BMP-12 [9]): 1 | 100 mM HAc elution conc (BMP-12 [9]): 0.219 mg/mL | 4M Gnd, 50 mM NaAc pH 4 Strip Conc (BMP-12 [9]): 0.089 mg/ml | Flow-through K (BMP-12 [9]): 6 | Flow-through conc (BMP-12 [9]): 0.156 mg/mL
Binder: Ac-SDVGWNDWIVAPPGYHAFYSHGEK [BMP2 N-trun 1S peptide 751]
